We go through one molecule from article doi:10.1101/2024.06.20.599739 (2024).

Targets include linear 15 (); linear 19 (); linear 12 (); linear 11 ().
Test in all cases: SPR
Assay [1] has as its target EvoBind2 linear design, adversarial selection, length 11.

B1: MBP-8xHis-1SCC (semi-synthetic Ribonuclease, PDB ID 1SSC) (enzyme)
chain: KETAAAKFERQHMDSSTSAASSSNYCNQMMKSRNLTKDRCKPVNTFVHESLADVQAVCSQKNVACKNGQTNCYQSYSTMSITDCRETGSSKYPNCAYKTTQANKHIIVACEG
By Kd is commonly meant a measure of binding affinity in units of concentration. For B1, the Kd with linear 15 () is 4.34 µM; with linear 19 (), 7.18 µM; with linear 12 (), 0.728 µM; with linear 11 () it was 7.54 µM; in assay [1], 1.21 µM.
